In PMC6210734, “Unliganded Progesterone Receptor Governs Estrogen Receptor Gene Expression by Regulating DNA Methylation in Breast Cancer Cells”:
Substitutions are numbered along the chain they refer to.

B1: PRE no CpG (dsDNA)
DNA 1: GTTGAGTCAGAACAGTTTGTTCTCTAGGCAC
DNA 2: GTGCCTAGAGAACAAACTGTTCTGACTCAAC
B2: PRE two CpGs, unmethylated (dsDNA)
DNA 1: B1 DNA 1 with A14G, T18C
DNA 2: B1 DNA 2 with A14G, T18C

How the values were obtained:
[1] = target: T1, Progesterone receptor isoform B (PR-B) (Homo sapiens, UniProt P06401 1-933); assay: EMSA; EMSA: 20 min at room temperature, 5% acrylamide-bisacrylamide gel; buffer, salt and pH not stated; settings: protein: recombinant; chain copies: 2; (radioactive); blunt
[2] = target: T1, Progesterone receptor isoform B (PR-B); assay: competition; 100-fold unlabeled competitor vs labeled no-CpG PRE, 2.4 ug PR-B; high-affinity competitor; EMSA: 20 min at room temperature, 5% acrylamide-bisacrylamide gel; buffer, salt and pH not stated; settings: protein: recombinant; chain copies: 2; (radioactive); blunt

T1 sequence (P06401 whole entry, canonical isoform): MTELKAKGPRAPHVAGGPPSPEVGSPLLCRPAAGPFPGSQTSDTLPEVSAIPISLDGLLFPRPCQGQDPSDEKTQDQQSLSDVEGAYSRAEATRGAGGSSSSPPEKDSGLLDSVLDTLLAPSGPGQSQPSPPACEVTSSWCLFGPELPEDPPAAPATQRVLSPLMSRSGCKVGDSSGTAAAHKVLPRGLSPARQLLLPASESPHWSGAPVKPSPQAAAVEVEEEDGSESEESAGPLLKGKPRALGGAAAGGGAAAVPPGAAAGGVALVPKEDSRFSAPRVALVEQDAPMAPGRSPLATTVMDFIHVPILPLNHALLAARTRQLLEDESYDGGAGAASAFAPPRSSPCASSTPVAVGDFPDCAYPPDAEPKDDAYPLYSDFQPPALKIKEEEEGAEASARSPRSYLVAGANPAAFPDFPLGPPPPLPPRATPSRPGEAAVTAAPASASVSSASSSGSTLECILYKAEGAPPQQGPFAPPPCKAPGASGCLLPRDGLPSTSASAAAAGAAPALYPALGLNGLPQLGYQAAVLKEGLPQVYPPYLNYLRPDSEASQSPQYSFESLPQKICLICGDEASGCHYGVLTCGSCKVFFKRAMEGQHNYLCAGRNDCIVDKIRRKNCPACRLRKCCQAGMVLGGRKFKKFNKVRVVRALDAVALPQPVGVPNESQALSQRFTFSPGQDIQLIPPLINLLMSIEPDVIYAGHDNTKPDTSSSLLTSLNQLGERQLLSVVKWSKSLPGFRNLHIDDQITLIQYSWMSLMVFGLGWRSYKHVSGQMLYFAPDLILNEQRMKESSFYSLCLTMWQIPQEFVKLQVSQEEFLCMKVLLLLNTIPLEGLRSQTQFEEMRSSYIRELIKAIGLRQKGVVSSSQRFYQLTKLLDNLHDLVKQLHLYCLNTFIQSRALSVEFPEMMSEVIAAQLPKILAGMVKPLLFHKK

Binder	binding result [1]	binding result [2]
B1	binds	
B2		binds
